The values that follow come from publication PMC12086574 (Molecular Biology of the Cell, 2025).

This data set concerns the molecule itself. As to the kind of experiment: SEC.

B1: His6-SEPT7G (domain or fragment)
chain: GFEFTLMVVGESGLGKSTLINSLFLTDLYSPEYPGPSHRIKKTVQVEQSKVLIKEGGVQLLLTIVDTPGFGDAVDNSNCWQPVIDYIDSKFEDYLNAESRVNRRQMPDNRVQCCLYFIAPSGHGLKPLDIEFMKRLHEKVNIIPLIAKADTLTPEECQQFKKQIMKEIQEHKIKIYEFPETDDEEENKLVKKIKDRLPLAVVGSNTIIEVNGKRVRGRQYPWGVAEVENGEHCDFTILRNMLIRTHMQDLKDVTNNVHYENYRSRKLAAVT
With B1, the stoichiometry N (as a rule, a count of units in the complex or per binding partner) came to 2.
